Data taken from patent US20040005643A1.

How the values were obtained:
human tenascin-C (human) [1] = biological target: human tenascin-C (human) (UniProt P24821); assay: BIAcore
human tenascin-C (human) [2] = biological target: human tenascin-C (human) (UniProt P24821); assay: ELISA, biotinylated antibody, 2-3 moles biotin/antibody
human tenascin-C (human) [3] = biological target: human tenascin-C (human) (UniProt P24821); assay: ELISA, biotinylated antibody, 7-10 moles biotin/antibody
human tenascin-C (human) [4] = biological target: human tenascin-C (human) (UniProt P24821); assay: ELISA, biotinylated antibody, 15-20 moles biotin/antibody
human tenascin-C (human) [5] = biological target: human tenascin-C (human) (UniProt P24821); assay: ELISA, biotinylated antibody, 3.5-5 moles biotin/antibody
human tenascin-C (human) [6] = biological target: human tenascin-C (human) (UniProt P24821); assay: immunoreactivity of the batch used for biodistribution, 7-10 biotins/mole

Chain of human tenascin-C (human) (P24821 23-2201 limits assumed): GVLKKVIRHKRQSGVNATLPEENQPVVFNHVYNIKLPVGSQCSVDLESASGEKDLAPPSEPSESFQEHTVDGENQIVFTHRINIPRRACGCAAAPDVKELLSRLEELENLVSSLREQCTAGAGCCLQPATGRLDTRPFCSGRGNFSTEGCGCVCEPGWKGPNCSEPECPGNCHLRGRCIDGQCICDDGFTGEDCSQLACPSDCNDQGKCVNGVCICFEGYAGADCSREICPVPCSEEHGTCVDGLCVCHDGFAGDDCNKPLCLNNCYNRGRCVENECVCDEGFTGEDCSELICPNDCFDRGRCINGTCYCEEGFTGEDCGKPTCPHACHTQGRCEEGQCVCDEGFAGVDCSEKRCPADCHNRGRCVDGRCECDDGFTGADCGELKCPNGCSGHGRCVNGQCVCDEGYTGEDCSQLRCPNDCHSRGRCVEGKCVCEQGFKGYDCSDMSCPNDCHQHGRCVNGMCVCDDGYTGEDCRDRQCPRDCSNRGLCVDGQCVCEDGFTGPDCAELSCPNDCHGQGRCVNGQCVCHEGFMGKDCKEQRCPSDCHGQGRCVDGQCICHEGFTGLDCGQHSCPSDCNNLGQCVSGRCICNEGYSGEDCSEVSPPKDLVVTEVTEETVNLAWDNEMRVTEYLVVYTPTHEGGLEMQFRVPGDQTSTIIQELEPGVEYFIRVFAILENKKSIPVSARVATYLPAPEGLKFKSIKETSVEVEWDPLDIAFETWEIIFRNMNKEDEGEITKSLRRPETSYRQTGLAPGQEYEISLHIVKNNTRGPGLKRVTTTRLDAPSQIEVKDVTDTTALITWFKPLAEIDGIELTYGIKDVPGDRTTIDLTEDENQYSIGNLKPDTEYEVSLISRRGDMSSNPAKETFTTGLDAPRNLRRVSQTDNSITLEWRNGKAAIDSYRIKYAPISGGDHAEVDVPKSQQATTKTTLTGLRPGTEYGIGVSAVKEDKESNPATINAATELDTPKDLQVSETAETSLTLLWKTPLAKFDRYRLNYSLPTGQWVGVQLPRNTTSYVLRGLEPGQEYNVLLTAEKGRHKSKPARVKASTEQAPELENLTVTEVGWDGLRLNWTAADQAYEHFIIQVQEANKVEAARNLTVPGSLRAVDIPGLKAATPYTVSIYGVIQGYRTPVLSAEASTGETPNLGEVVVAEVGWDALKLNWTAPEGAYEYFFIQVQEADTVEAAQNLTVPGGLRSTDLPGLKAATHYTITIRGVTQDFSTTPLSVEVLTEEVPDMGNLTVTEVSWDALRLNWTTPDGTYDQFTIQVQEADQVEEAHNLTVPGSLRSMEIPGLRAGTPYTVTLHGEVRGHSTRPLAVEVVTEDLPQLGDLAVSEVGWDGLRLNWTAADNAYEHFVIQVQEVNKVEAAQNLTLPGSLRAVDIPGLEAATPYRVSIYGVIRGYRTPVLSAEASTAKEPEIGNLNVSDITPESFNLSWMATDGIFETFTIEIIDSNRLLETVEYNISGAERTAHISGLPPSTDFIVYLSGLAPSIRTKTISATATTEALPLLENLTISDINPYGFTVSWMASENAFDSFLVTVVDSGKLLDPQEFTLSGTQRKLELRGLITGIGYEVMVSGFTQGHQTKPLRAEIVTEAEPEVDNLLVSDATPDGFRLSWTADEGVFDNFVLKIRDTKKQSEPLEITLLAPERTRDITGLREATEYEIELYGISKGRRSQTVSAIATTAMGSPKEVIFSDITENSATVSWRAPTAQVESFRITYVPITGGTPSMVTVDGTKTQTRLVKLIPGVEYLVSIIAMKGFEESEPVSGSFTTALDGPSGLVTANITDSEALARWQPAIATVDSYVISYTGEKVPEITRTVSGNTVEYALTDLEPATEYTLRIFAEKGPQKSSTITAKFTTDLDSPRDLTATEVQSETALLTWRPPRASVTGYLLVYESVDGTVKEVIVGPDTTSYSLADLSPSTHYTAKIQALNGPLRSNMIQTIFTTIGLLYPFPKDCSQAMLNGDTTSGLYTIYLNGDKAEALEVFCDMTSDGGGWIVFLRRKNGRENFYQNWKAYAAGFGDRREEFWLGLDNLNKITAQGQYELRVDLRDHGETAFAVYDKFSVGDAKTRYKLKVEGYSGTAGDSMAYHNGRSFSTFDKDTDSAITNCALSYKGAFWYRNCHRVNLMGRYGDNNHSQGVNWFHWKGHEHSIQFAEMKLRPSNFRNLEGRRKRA

Row | Kd (human tenascin-C (human) [1]) [nM] | % of Immunoreactivity (human tenascin-C (human) [2]) [%] | % of Immunoreactivity (human tenascin-C (human) [3]) [%] | % of Immunoreactivity (human tenascin-C (human) [4]) [%] | % of Immunoreactivity (human tenascin-C (human) [5]) [%] | immunoreactivity (human tenascin-C (human) [6]) [%] | Substance
1 | 4.9 | – | – | – | – | – | BC4 anti-human tenascin monoclonal antibody
2 | – | 82.4 | 67.2 | 12.6 | 74.4 | 80 | biotinylated BC4 (antibody)
